Literature values as cited in patent publication US20260070964A1, “IL-12 GENE THERAPY AND ANTI-VEGF COMBINATION FOR TREATING CANCER” (IMUNON, INC., priority 2022, published 2026).

Columns and labels:
[1] = tested on: established tumors; conditions: animal models
[2] = several experimental trials and an initial human trial
[3] = human clinical trial

Q: What does the source list for “recombinant IL-12: recombinant interleukin-12 protein”?
A: antitumor effects [1]: profound T-cell mediated antitumor effects causing regression of established tumors; toxicity on systemic administration [2]: dose limiting toxicity; toxicity on intraperitoneal administration [3]: Dose limiting toxicity was also observed
